B1: Cyclic dof factor 1 (Arabidopsis thaliana (Mouse-ear cress)), Q8W1E3 (parent)
chain: MLETKDPAIKLFGMKIPFPTVLEVADEEEEKNQNKTLTDQSEKDKTLKKPTKILPCPRCNSMETKFCYYNNYNVNQPRHFCKACQRYWTSGGTMRSVPIGAGRRKNKNNSPTSHYHHVTISETNGPVLSFSLGDDQKVSSNRFGNQKLVARIENNDERSNNNTSNGLNCFPGVSWPYTWNPAFYPVYPYWSMPVLSSPVSSSPTSTLGKHSRDEDETVKQKQRNGSVLVPKTLRIDDPNEAAKSSIWTTLGIKNEVMFNGFGSKKEVKLSNKEETETSLVLCANPAALSRSINFHEQM

Variants of: B1
Details: with ado3_arath ADO3, Q9C9W9
Sequence of ado3_arath ADO3, Q9C9W9 (Q9C9W9 whole entry): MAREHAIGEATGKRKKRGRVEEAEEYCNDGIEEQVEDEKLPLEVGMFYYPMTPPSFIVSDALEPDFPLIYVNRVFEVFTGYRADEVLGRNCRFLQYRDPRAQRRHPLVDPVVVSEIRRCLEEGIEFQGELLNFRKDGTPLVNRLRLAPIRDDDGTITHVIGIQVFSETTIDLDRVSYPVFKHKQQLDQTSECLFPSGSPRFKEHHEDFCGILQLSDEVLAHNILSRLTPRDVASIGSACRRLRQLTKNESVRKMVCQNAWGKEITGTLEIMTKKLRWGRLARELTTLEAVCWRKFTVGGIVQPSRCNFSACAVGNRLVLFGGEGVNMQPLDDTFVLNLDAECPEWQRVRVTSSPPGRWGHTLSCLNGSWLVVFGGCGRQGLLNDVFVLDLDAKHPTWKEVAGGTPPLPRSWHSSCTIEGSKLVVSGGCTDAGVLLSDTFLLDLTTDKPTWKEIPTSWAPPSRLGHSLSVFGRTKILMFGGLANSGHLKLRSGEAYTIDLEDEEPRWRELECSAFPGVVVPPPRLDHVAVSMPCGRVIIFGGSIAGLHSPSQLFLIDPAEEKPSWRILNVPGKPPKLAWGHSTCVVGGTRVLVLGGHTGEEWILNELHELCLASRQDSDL

Row | Variant | effect of a mutation on the interaction
1 | MLETKDPAIKLFGMKIPFPTVLEVADEEEEKNQNKTLTDQSEKDKTLKKPTKILPCPRCNSMETKFCYYNNYNVNQPRHFCKACQRYWTSGGTMRSVPIGAGRRKNKNNSPTSHYHHVTISETNGPVLSFSLGDDQKVSSNRFGNQKLVARIENNDERSNNNTSNGLNCFPGVSWPYTWNPAFYPVYPYWSMPVLSSPVSSSPTSTLGKHSRDEDETVKQKQRNGSVLVPKTLRIDDPNEAAKSSIWTTLGIANEVMFNGFGSKKEVKLSNKEETETSLVLCANPAALSRSINFHEQM [K253A] | decreasing interaction

— IntAct's records for PubMed 16002617
